The text below walks through data of the supplement of paper PMC9170038.

Data set [1] deals with MS2 coat protein. Description: apparent KD of MS2 coat protein; higher = weaker reporter binding. Conditions: Eterna round: R101. As to the method: (§1)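 RNA-MaP: designed FMN/MS2 RNA switches (84 nt design region) are transcribed on-chip within common flanks and titrated with SNAP-549-labelled MS2 coat protein (about 1-3000 nM) in 100 mM Tris pH 7.5, 80 mM KCl, 4 mM MgCl2, without or with 200 uM FMN. Median apparent KD per design; activation ratio = KD,OFF / KD,ON.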

The subject of data set [2] is MS2 coat protein. Description: apparent KD of MS2 coat protein; designed switch direction (-1 OFF switch, 1 ON switch): -1; higher = weaker reporter binding. As to conditions: Eterna round: R98. How it is done:
as §1

“AAAAAUUCUUAAGGAUAUCAGUGGCAAAGCCACUGAGAAGGUGAGGAUCACCCACCUACGUGACGCUGGAAACAGCGUCACGAA [#SharedSequence ExNG1 - 29] (puzzle (switch architecture): Exclusion NG 1)”: the “apparent KD of MS2 coat protein” value came to 18.8 nM with MS2 coat protein [1] (input ligand: FMN 200 uM) and 16.6 nM with MS2 coat protein [1] (input ligand: none).
The matching figures for “AAUAAUUCUUAAGGAUAUGACUCCGAAACGGAGUCAGAAGGUGAGGAUCACCCACCUAGCUCAGCGUCGAAAGACGCUGAGCAA [#SharedSequence ExNG1 - 31] (puzzle (switch architecture): Exclusion NG 1)”: 12.7 nM and 10.5 nM.
The matching figures for “AGAAACUACGAGAAGGACAUGUGGUCCUUCAAAACCAUGAGGAUCACCCAUGUAGGAUAUCGUAGUUUCAGGAUCGUGAGAUCA [salish99_ISLExNG1_023 #HINGE] (puzzle (switch architecture): Inverted Small Loop Exclusion NG 1)”: 12.1 nM and 268 nM.
For the sequence “AGGACAGGCAGAGCGCAACGGCGUACAUGAGGAUCACCCAUGUAGGAUAUACUACACAAAGUGUAGUAGAAGGACAUGCGACGC [Ex NG2 #88]”, the “apparent KD of MS2 coat protein” value in the data set with MS2 coat protein [2] (input ligand: FMN 200 uM) is 45.6 nM; with MS2 coat protein [2] (input ligand: none), 16.1 nM.
Take “AUAUAUAUUUAGAAGGACAUGAGGAUCACCCAUGUCGCCGGGCCCGGGAAACCGGGCCCGGCCAUGUAGGAUAUAGAUAUAUAU [#This is a good prank 13] (puzzle (switch architecture): Inverted Exclusion NG 2)”: the “apparent KD of MS2 coat protein” value in the data set with MS2 coat protein [1] (input ligand: FMN 200 uM) was found to be 9.05 nM; in the data set on MS2 coat protein [1] (input ligand: none), 6.41 nM.
For “AUCAGCUCGUCAGGAUAUACGUCACUGCUUCGGCAGUGUGGUAAGAUCACAUGAGGAUCACCCAUGUAGAAGGGACGAGCUGAU [#EX_NG2_M81 #GC_VS_GU_SWITCHING] (puzzle (switch architecture): Exclusion NG 2)”, the “apparent KD of MS2 coat protein” value was 258 nM in the data set with MS2 coat protein [1] (input ligand: FMN 200 uM) and 13.4 nM in the data set with MS2 coat protein [1] (input ligand: none).
Regarding “AUGACAGGCAGAGCGCAACGGCGUACAUGAGGAUCACCCAUGUAGGAUAUACUACACAAAGUGUAGUAGAAGGACAUGCGACGC [Ex NG2 #87]”, the “apparent KD of MS2 coat protein” value in the data set on MS2 coat protein [2] (input ligand: FMN 200 uM) was determined as 34.4 nM; in the data set on MS2 coat protein [2] (input ligand: none), 23.2 nM.
The matching figures for “AUGACAGGCAGAGCGCAACGGCGUACAUGAGGAUCACCCAUGUAGGAUAUACUACACAAAGUGUAGUAGAAGGACAUGCGACGG [Ex NG2 #89]”: 69 nM and 35.8 nM.
On to “AUGGAUAUCACAGGAUAUGAUAUGGAUACCAUAUCAGAAGGGUGACCCAUCCUAUGUAAAUACAUGAGGAUCACCCAUGUGUCC [Sara'sguidence+#HughScoreProbStacks#11] (puzzle (switch architecture): Same State NG 1)”, for which the “apparent KD of MS2 coat protein” value in the data set on MS2 coat protein [1] (input ligand: FMN 200 uM) was found to be 340 nM; in the data set on MS2 coat protein [1] (input ligand: none) it was 640 nM.
With “CCAUAAAAGAUCCAUUUUUACAACAUGAGGAUCACCCAUGUGCAGGAUAUCGUGAAAGUUAAAUACGAGAAGGGCAAGAACUGC [JR_ExcNG3_Sub050]”, the “apparent KD of MS2 coat protein” value in the data set on MS2 coat protein [2] (input ligand: FMN 200 uM) is 104 nM; in the data set with MS2 coat protein [2] (input ligand: none), 105 nM.
For the sequence “CCUUUAAAGAUCCAAAAUUACAACAUGAGGAUCACCCAUGUGCAGGAUAUCGUGCCAGUGAUGUACGAGAAGGGCAGACUCUGC [salish99_ExNG3_r2_015]”, the “apparent KD of MS2 coat protein” value in the data set on MS2 coat protein [2] (input ligand: FMN 200 uM) was determined as 95.2 nM; with MS2 coat protein [2] (input ligand: none), 105 nM.
With “CGAAGUCCGUAGAAGGGUGACAUGAGGAUCACCCAUGUGCGAGCCGAUGGAGUCAGCGGCUCGCCACAGGAUAUACGGAGCACG [Isdiesrama] (puzzle (switch architecture): Inverted Same State NG 2)”, the results for the “apparent KD of MS2 coat protein” value in the data set with MS2 coat protein [1] (input ligand: FMN 200 uM) and with MS2 coat protein [1] (input ligand: none) were 22.3 nM and 180 nM, respectively.
The matching figures for “CGAUAUAUGAAGGGCAAACGCCCACAUGAGGAUCACCCAUGUAGAAGGCGAUCCGCAACGCGGAUCGAGGAUAUAUAGUAUACA [#my 15th design] (puzzle (switch architecture): Inverted Exclusion NG 3)”: 10.6 nM and 11.2 nM.
For “CGCUAUAACAUGAGGAUCACCCAUGUAUACAUGGAAUUGACGUAGGAUAUGCAGUUGAUUAUAGUGCAGAAGGACGGUAUAGCG [JR #DistanceFar #Hairpin #Noisy #NP SSNG3 Sub069] (puzzle (switch architecture): Same State NG 3)”, the “apparent KD of MS2 coat protein” value in the data set on MS2 coat protein [1] (input ligand: FMN 200 uM) was 37.3 nM; in the data set with MS2 coat protein [1] (input ligand: none), 101 nM.
For “GCAGCUAAUGCAGGAUAUCAGCACGUGUAGUGCUGAGAAGGGCACAUGAGGAUCACCCAUGUGAUCAAUUAAUGUUAAUGCUGC [ExNG1 1 #C-Saturation] (puzzle (switch architecture): Exclusion NG 1)”, the figures for the “apparent KD of MS2 coat protein” value with MS2 coat protein [1] (input ligand: FMN 200 uM) and in the data set with MS2 coat protein [1] (input ligand: none) were 15.2 nM and 6.82 nM, respectively.
Taken in the same sequence, the figures for “GGAGACCUUACAGGAUAUGCUGGACUUUGUCCAGCAGAAGGGUGAAAACAUGAGGAUCACCCAUGUAUGGUCUCCAAAUUUAAU [jl-ssng1-3.02 #GU_VS_GC_SWITCHING] (puzzle (switch architecture): Same State NG 1)” were 21.2 nM and 19.1 nM.
With “GGGUACAUCGGAGGAUAUCAUGUAUAUACAUGAGGAUCACCCAUGUCGAUGGAGACAUCGGAGAUUGAGAAGGCCGAUGUACCG (puzzle (switch architecture): Same State NG 2)”, the “apparent KD of MS2 coat protein” value in the data set on MS2 coat protein [1] (input ligand: FMN 200 uM) worked out at 11.8 nM; with MS2 coat protein [1] (input ligand: none), 382 nM.
Regarding “UAUAUAUAGGCAGGAUAUACAUGAAUAUAUAAUAUAAUAUAUAAUAUAACAUGAGGAUCACCCAUGUAGAAGGGCCAUAAUAUA [LRO031_Exclusion NG 2]”, the “apparent KD of MS2 coat protein” value is 109 nM with MS2 coat protein [2] (input ligand: FMN 200 uM) and 48.6 nM with MS2 coat protein [2] (input ligand: none).
The matching figures for “UAUAUAUAGGCAGGAUAUACAUGUAUAUAUAAUUUUUUAUAUAUUAUUACAUGAGGAUCACCCAUGUAGAAGGGCCUUAUUAUA [LRO039_Exclusion NG 2]”: 62.8 nM and 46.9 nM.
Regarding “UAUUAUAUAUAGAAGGACAUGAGGAUCACCCAUGUCGCCGGGCCCGGGAAACCGGGCCCGGCCAUGUAGGAUAUAUAUAUGGUA [#This is a good prank 8] (puzzle (switch architecture): Inverted Exclusion NG 2)”, the “apparent KD of MS2 coat protein” value with MS2 coat protein [1] (input ligand: FMN 200 uM) was found to be 6.2 nM; in the data set on MS2 coat protein [1] (input ligand: none), 6.38 nM.
For “UGUUGUUACGCAGGAUAUUGCCAACAGGCAGUAGGAUAUCCGAAAGGAGAAGGAUCGCCAACAGGCGAGAAGGGCGGGUUAACA [pwkr exNG2 2xF7 2FMN.10.2]”, the “apparent KD of MS2 coat protein” value in the data set with MS2 coat protein [2] (input ligand: FMN 200 uM) stood at 194 nM; in the data set with MS2 coat protein [2] (input ligand: none), 706 nM.
